PMC12593833

Assays:
[1] = target: synthetic L-streptavidin (S. avidinii); assay: SEC; analytical SEC of the folded proteins, with molecular weight standards
[2] = target: synthetic D-streptavidin (mirror-image streptavidin) (S. avidinii); assay: as above

Substance	stoichiometry N [1]	stoichiometry N [2]
synthetic L-streptavidin (natural protein)	4	
synthetic D-streptavidin (mirror-image streptavidin)		4
